Test results taken from US20130101549A1 (Biogen, published 2013).
Several values for one entry are separate records, joined by “and”; a condition that tells them apart may be missing. Identical values can stand only once.

Assays:
[1] = molecular target: T1, murine HER2-Fc (mouse; human, UniProt P70424 23-653); test: ELISA on coated muHER2-Fc, HRP anti-human kappa; the number is C of the printed 4-P fit (A -0.025, B 0.883, D 0.935, R^2 0.999); x axis: Fab equivalent concentration
T1 construct: extracellular domain; Bought from R&D Systems; also called murine ErbB2-Fc; not shown: Fc fragment of human IgG1
Method: (§1) Wells of 96-well plates were coated by incubation overnight at 4-8° C. with goat antibodies against human kappa chain (80 ul/well of a 5 ug/ml solution in PBS). Wells were emptied, filled completely with a solution of PBS with 1% BSA (blocking buffer) and incubated at room temperature for 1 hour. Wells were emptied, washed twice PBS containing 0.05% Tween 20 (PBST) and filled with the samples (80 ul/well of 3× dilution series of the standard and supernatants in blocking buffer) prepared in another 96-well plate. After a 2-hour incubation at room temperature, the wells were emptied, washed three times with PBST and filled with a solution of HRP-conjugated goat pAbs anti-human kappa chain (80 ul/well of a 2000-fold dilution in blocking buffer). After 1-hour incubation, the wells were emptied and filled with a solution of HRP substrate prepared freshly. The color was left to develop for 3 minutes and was stopped by addition of an equal volume of 1N H₂SO₄. Absorbance was measured at 450 nm using a Plate Reader (SpectraMax, Molecular Devices). The data was processed and graphs were created using SoftMax Pro software.
(§2) Human and murine HER2-Fc (homodimeric fusion proteins consisting of the extracellular domain of HER2 and the Fc fragment of human IgG1) were obtained from R&D Systems. […]

[2] = molecular target: T2, murine HVEM-Ig (mouse, UniProt Q80WM9 39-210); test: ELISA, muHVEM-Ig coated at 0.2 ug/ml, HRP goat anti-human kappa; the number is C of the printed 4-P fit (A 0.045, B 0.716, D 1.298, R^2 0.996); Fab-Light is BIIB71F10-132 by paragraph 503
T2 construct: Expressed and purified in house
T2 sequence (looked up): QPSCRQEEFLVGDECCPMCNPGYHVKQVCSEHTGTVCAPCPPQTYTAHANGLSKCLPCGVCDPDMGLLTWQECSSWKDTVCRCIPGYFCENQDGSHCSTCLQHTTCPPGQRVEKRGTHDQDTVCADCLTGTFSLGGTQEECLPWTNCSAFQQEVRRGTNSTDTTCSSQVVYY
Method: as §1, with “Human and murine ErbB2-Fc were obtained from R&D Systems. Wells of” for “Wells of”, “were coated with 2 ug/ml or 0.2 ug/ml of human or murine HER2-Fc by incubation” for “were coated by incubation”, “C. with either of these six proteins (80 ul/well” for “C. with goat antibodies against human kappa chain (80 ul/well”, “of a 0.2 or 2 ug/ml solution” for “of a 5 ug/ml solution”
(§3) Human and murine HVEM-Ig were expressed and purified in house.

[3] = molecular target: T3, human HVEM-Ig (human, UniProt Q92956 39-202); test: ELISA, huHVEM-Ig coated at 0.2 ug/ml, HRP goat anti-human kappa; the number is C of the printed 4-P fit (A 0.08, B 1.089, D 1.303, R^2 0.999); Fab-Light is BIIB71F10-132 by paragraph 503
T3 construct: Expressed and purified in house; also called HVEM-Fc; Herpes virus entry mediator-Ig
T3 sequence (looked up): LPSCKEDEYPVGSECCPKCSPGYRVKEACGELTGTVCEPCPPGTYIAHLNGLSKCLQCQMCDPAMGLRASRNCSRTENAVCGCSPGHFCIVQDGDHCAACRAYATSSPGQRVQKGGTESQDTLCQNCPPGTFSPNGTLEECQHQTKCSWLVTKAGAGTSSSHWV
Method: as §1, with “Human and murine ErbB2-Fc were obtained from R&D Systems. Wells of” for “Wells of”, “were coated with 2 ug/ml or 0.2 ug/ml of human or murine HER2-Fc by incubation” for “were coated by incubation”, “C. with either of these six proteins (80 ul/well” for “C. with goat antibodies against human kappa chain (80 ul/well”, “of a 0.2 or 2 ug/ml solution” for “of a 5 ug/ml solution”
as §3

[4] = molecular target: Soluble human LTBR (shuLTBR) (human, UniProt P36941 31-227, limits assumed); test: SEC / light scattering
Method: Soluble human LTBR (shuLTBR) was prepared by limited proteolytic digestion of human LTBR-Ig and purified by chromatography on protein A Sepharose and Fractogel TMAE. […] Controls with each protein were also included. The samples were analyzed by SEC using a […] column (Phenomenex) in PBS with a Waters Alliance HPLC instrument.

[5] = molecular target: T4, human LTβR-Ig (human, UniProt P36941 31-227); test: Octet biolayer interferometry, receptor-Fc on anti-human Fc biosensor, culture supernatant
T4 construct: Expressed and purified in house; also called hLTbR-Ig; human LTBR-Ig
Method: (§4) Anti-human Fc-specific biosensors (Fortebio SKU 18-0001) were hydrated in OB (1×PBS supplemented with 1 mg/ml BSA, 0.05% NaN₃, and 0.02% TWEEN 20) for at least five minutes prior to assays. For each assay, the respective receptor—Fc fusion was diluted to 10 μg/ml in OB and allowed to bind to the biosensors for five minutes. The sensors were then incubated in the indicated culture supernatant for an additional five minutes, and subsequently transferred to fresh wells […].

[6] = molecular target: T3, human HVEM-Ig; test: as above
Method: as §4

[7] = molecular target: T5, human HER2-Fc (human, UniProt P04626 23-652); test: as above
T5 construct: Bought from R&D Systems: homodimeric fusion of the HER2 extracellular domain and human IgG1 Fc; also called human ErbB2-Fc; rhErbB2-Fc; not shown: Fc fragment of human IgG1
Method: as §4

[8] = molecular target: T5, human HER2-Fc; test: ELISA on coated huHER2-Fc, HRP anti-human kappa; the number is C of the printed 4-P fit (A -0.074, B 0.86, D 1.013, R^2 0.999); x axis: Fab equivalent concentration
Method: as §1, §2

Sequence of Soluble human LTBR (shuLTBR) (P36941 31-227 limits assumed): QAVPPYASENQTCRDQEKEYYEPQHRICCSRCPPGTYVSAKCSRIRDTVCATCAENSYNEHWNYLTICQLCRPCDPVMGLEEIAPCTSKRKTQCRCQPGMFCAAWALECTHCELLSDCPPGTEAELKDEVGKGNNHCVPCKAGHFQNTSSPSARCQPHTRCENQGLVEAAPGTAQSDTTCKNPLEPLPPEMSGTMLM
T4 sequence (P36941 31-227): as the sequence (P36941 31-227 limits assumed) above
T1 sequence (P70424 23-653): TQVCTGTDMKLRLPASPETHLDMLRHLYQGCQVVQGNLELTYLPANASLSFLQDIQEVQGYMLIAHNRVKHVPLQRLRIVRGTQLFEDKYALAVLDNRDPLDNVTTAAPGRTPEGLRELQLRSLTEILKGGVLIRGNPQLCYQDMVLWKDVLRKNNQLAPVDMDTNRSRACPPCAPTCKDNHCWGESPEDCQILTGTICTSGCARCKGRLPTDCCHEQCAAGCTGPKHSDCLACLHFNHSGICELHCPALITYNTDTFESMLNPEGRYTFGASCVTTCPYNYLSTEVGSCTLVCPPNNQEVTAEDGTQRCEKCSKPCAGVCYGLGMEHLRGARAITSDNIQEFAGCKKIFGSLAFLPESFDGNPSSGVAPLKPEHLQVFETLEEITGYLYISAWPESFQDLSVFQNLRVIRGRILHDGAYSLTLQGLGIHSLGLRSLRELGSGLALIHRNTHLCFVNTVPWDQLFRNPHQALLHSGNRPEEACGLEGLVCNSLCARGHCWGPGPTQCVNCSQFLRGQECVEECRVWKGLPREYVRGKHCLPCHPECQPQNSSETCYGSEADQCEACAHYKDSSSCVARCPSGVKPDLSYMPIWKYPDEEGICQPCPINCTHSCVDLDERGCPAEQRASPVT

B1: 71F10 Fab-hLIGHT fusion with the (G4S)4 linker (BIIB71F10-132) (other)
heavy: EVQLLESGGGLVQPGGSLRLSCAASGFTFSSYGMVWVRQAPGKGLEWVSSISSSGGLTWYADSVKGRFTISRDNSKNTLYLQMNSLRAEDTAVYYCASPPGIAVARDYWGQGTLVTVSSASTKGPSVFPLAPSSKSTSGGTAALGCLVKDYFPEPVTVSWNSGALTSGVHTFPAVLQSSGLYSLSSVVTVPSSSLGTQTYICNVNHKPSNTKVDKKVEPKSCDKGGGGSGGGGSGGGGSGGGGSNPAAHLTGANSSLTGSGGPLLWETQLGLAFLRGLSYHDGALVVTKAGYYYIYSKVQLGGVGCPLGLASTITHGLYKRTPRYPEELELLVSQQSPCGRATSSSRVWWDSSFLGGVVHLEAGEEVVVRVLDERLVRLRDGTRSYFGAFMV
light: DIQMTQSPSSLSASVGDRVTITCRASQGISNYLAWYQQKPGKVPKLLIYAASTLQSGVPSRFSGSGSGTDFTLTISSLQPEDVATYYCQKYNSALLTFGGGTKVEIKRTVAAPSVFIFPPSDEQLKSGTASVVCLLNNFYPREAKVQWKVDNALQSGNSQESVTEQDSKDSTYSLSSTLTLSKADYEKHKVYACEVTHQGLSSPVTKSFNRGEC
notes: Trimer of Fab-LIGHT units; also called 71F10 Fab-(G4S)4-LIGHT
EC50 [1]: 12.2 ng/mL
EC50 [2]: 26.3 ng/mL
EC50 [3]: 3.98 ng/mL
stoichiometry (shuLTBR for 1 Fab-Light trimer) [4]: 2 shuLTBR per trimer and 3 shuLTBR per trimer
koff [5]: 0.000197 s⁻¹
koff [6]: 0.00016 s⁻¹
koff [7]: 0.000117 s⁻¹
EC50 [8]: 7 ng/mL
